As a reminder, the tissue uptake is the share of the injected amount in each gram of the tissue.

Data set [1] can be described thus: Organ distribution of 177Lu-labelled peptides in HT1080 xenograft mice. In kind it is in vivo, BALB/c nu/nu mice. Conditions: male, BALB/c nu/nu, mouse, HT1080 tumor, iv, total radioactivity; for tissue uptake at 1 h: 1 h p.i. How it is done:
(§1) General procedure for radiolabelling with Lu-177.
(§2) • 50 μL 0.25 M Na-Acetate buffer pH 5.2+0.1% Tween 20; • 10 μL [Lu-177]LuCl3 in 0.05 M HCl; and • 2 μL of the diluted peptide (2 nmols). […]
(§3) Organ distribution studies, general method: For organ distribution, the respective dose is prepared by dilution of the labeling reaction mixture in injection buffer (0.25 M Na-Acetate pH 7+0.05% Tween20). The ^177Lu-radiolabeled peptide was injected via the tail vein of the nu/nu mice (50 kBq per mouse), transplanted with the respective cell line. At indicated time points after injection the animals were sacrificed. Blood, heart, lung, spleen, liver, kidney, muscle, brain, femur, and the tumor were dissected, blotted dry, and weighed. The radioactivity was measured with a γ-counter (CobraII; Canberra Packard) along with a sample of the injection solution to calculate the percentage injected dose per gram of tissue (% ID/g).
(§4) The γ- and β-emitter ^177LuCl3 (NEZ307D, Perkin Elmer, in 0.04 M HCl), with a t1/2 of 6.7 days was used for both in vivo biodistribution and internalization studies. Labeling reactions were performed by adding 10 μL ^177LuCl3 (˜10 MBq) in 50 mM HCl, 2 μL of the diluted peptide (1 mM solution in 50 mM HEPES buffer pH 7+0.1% Tween 20 diluted from a 10 mM DMSO stock) to 50 μL 50 mM HEPES buffer pH 7 supplemented with 0.1% Tween 20. The reaction mixture was incubated at 98° C. for 10 minutes. The radiochemical yield (RCY) was determined using high performance liquid chromatography (HPLC) system equipped with a Latek P402 (Latek, Eppelheim, Germany), a HITACHI variable UV detector (absorbance was measured at 214 and 254 nm) and a gamma detector (Bioscan, WA, USA), using a Chromolith RP-18 column (100×4.6 mm; Merck). The analytical HPLC run was performed at 4 mL/min, using a linear A (0.1% trifluoroacetic acid (TFA) in water) to B (0.1% TFA in acetonitrile) gradient (0% B to 100% B in 6 min). Thin-layer chromatography was performed in parallel to confirm the results of the radio-HPLC. The RCY was generally >95%, and thus, the output of labelling reactions was directly diluted with the appropriate buffer and further unlabeled peptide if required, to use in subsequent experiments.
(§5) 5×10^6 cells of HT1080 were subcutaneously inoculated into the right trunk of male 6-week-old BALB/c nu/nu mice (Charles River Laboratories). The tumors were grown for approximately 1 week, to a maximum size of ˜200 mm^3. Respective doses were prepared by mixing a fixed quantity of 5 pmoles ^177Lu labelled peptides (at approx. 50 kBq) with different quantities of non-labelled peptide (derived from 1 mM stock solution in 0.25 M sodium acetate pH 7+0.05% Tween20) in 100 μL injection buffer (0.25 M sodium acetate pH 7+0.05% Tween20). 3 animals were used per dose and timepoint. Radiolabelled peptide solutions were injected via the tail vein, followed by sacrifice at various time points. Organs of interest (blood, heart, lung, spleen, liver, kidney, muscle, small intestine, brain, HT1080 tumor) were dissected, blotted dry, and weighed. The radioactivity was measured using a gamma counter and calculated as % ID/g.

The subject of another data set is HT1080 tumor. Described as above. The data set is classed as in vivo, BALB/c nu/nu mice. Conditions: 1 h post injection. The method, then:
as §1, §2, §3, §4, §5

*1 amine or outer side, *2 acyl side, *3 side chain or, on linkers, in order; H or OH if unused. Where a SMILES comes first, the peptide text is derived from it. Bridges are numbered along the chain shown (N, C = ends). [ ]: non-standard residue; d: D form. The star is where a group is joined. DOTA = O=C(O)CN1CCN(CC(=O)O)CCN(CC(=O)*)CCN(CC(=O)O)CC1; 1Nal = N[C@@H](Cc1cccc2ccccc12)C(=O)O; TBMB = c1c(C[*:1])cc(C[*:3])cc1C[*:2]; Tle = CC(C)(C)[C@H](N)C(=O)O

`C[C@H](NC(=O)CN1CCN(CC(=O)O)CCN(CC(=O)O)CCN(CC(=O)O)CC1)C(=O)N[C@H]1CSCc2cc3cc(c2)CSC[C@H](NC(=O)[C@@H](C)NC(=O)[C@H](Cc2cccc4ccccc24)NC(=O)[C@H](CCC(=O)O)NC(=O)[C@H](CC(N)=O)NC(=O)[C@@H](C)NC1=O)C(=O)N[C@@H](CCC(=O)O)C(=O)N[C@@H](CC(=O)O)C(=O)N[C@@H](Cc1ccccc1)C(=O)N[C@@H](Cc1ccc(O)cc1)C(=O)N[C@@H](CC(=O)O)C(=O)N[C@@H](C(C)(C)C)C(=O)N[C@H](C(N)=O)CSC3` [I-23] ({DOTA}-AC[dA]NE[1Nal][dA]CEDFYD[Tle]C-NH2; linker 2-8-15 via TBMB): the tissue uptake at 1 h in data set [1] (50 kBq per mouse) amounted to 12 ± 2.37 %ID/g. Moreover, in data set [1] (50 kBq per mouse, 24 h p.i.), the tissue uptake at 24 h amounted to 1.54 ± 0.06 %ID/g. Also, the tissue uptake at 1 h in data set [1] was determined as 12.4 %ID/g. Further, in the data set on HT1080 tumor, the “blocking of tumor uptake at a dose of 500 pmoles” value was “slightly blocked”, the “blocking of tumor uptake using 5 nmoles” value is reported as “nearly completely blocked” and the “tumor uptake compared to 17-69-07-N144” value is on record as “significantly higher tumor uptake”.

The values are drawn from patent publication US12552837B2, “Bicyclic peptide ligands with detectable moieties and uses thereof” (BicycleRD Limited, priority 2017, dated 2026).
